From patent US20060263345A1, “Butyrylcholinesterase variant polypeptides with increased catalytic efficiency and methods of use” (priority 2003, published 2006)
Substitutions are numbered along the chain they refer to. Names may count otherwise. “Also recorded” adds a separate entry of the source. Read-outs that look alike come from different tables or passages of the source.

B1: A328Y (protein, UniProt P06276 29-602, looked up, variant A328Y)
Cholinesterase: EDDIIIATKNGKVRGMNLTVFGGTVTAFLGIPYAQPPLGRLRFKKPQSLTKWSDIWNATKYANSCCQNIDQSFPGFHGSEMWNPNTDLSEDCLYLNVWIPAPKPKNATVLIWIYGGGFQTGTSSLHVYDGKFLARVERVIVVSMNYRVGALGFLALPGNPEAPGNMGLFDQQLALQWVQKNIAAFGGNPKSVTLFGESAGAASVSLHLLSPGSHSLFTRAILQSGSFNAPWAVTSLYEARNRTLNLAKLTGCSRENETEIIKCLRNKDPQEILLNEAFVVPYGTPLSVNFGPTVDGDFLTDMPDILLELGQFKKTQILVGVNKDEGTYFLVYGAPGFSKDNNSIITRKEFQEGLKIFFPGVSEFGKESILFHYTDWVDDQRPENYREALGDVVGDYNFICPALEFTKKFSEWGNNAFFYYFEHRSSKLPWPEWMGVMHGYEIEFVFGLPLERRDNYTKAEEILSRSIVKRWANFAKYGNPNETQNNSTSWPVFKSTEQKYLTLNTESTRIMTKLRAQQCRFWTSFFPKVLEMTGNIDEAEWEWKAGFHRWNNYMMDWKNQFNDYTSKKESCVGL
B2: P285S (protein, UniProt P06276 29-602, looked up, variant P285S)
Cholinesterase: B1 Cholinesterase with P285S, Y328A
B3: A328W/S287G/F227A/A199S (protein)
chain: B1 Cholinesterase with A199S, F227A, S287G, Y328W
modifications: Butyrylcholinesterase variant
B4: A328W/Y332M/S287G/F227A (protein)
chain: B1 Cholinesterase with F227A, S287G, Y328W, Y332M
modifications: Butyrylcholinesterase variant
B5: A328W/Y332S (protein)
chain: B1 Cholinesterase with Y328W, Y332S
modifications: Butyrylcholinesterase variant
B6: S287G (protein, UniProt P06276 29-602, looked up, variant S287G)
Cholinesterase: B1 Cholinesterase with S287G, Y328A
B7: A328W (protein, UniProt P06276 29-602, looked up, variant A328W)
Cholinesterase: B1 Cholinesterase with Y328W
B8: P285Q (protein, UniProt P06276 29-602, looked up, variant P285Q)
Cholinesterase: B1 Cholinesterase with P285Q, Y328A
B9: A328W/F227A (protein)
chain: B1 Cholinesterase with F227A, Y328W
modifications: Butyrylcholinesterase variant
B10: A328W/S287G/F227A (protein)
chain: B1 Cholinesterase with F227A, S287G, Y328W
modifications: Butyrylcholinesterase variant
B11: A199S (protein)
chain: B1 Cholinesterase with A199S, Y328A
modifications: Butyrylcholinesterase variant
B12: A328W/S287G/A199S (protein)
chain: B1 Cholinesterase with A199S, S287G, Y328W
modifications: Butyrylcholinesterase variant
B13: A328W/Y332M/S287G/F227A/A199S (protein)
chain: B1 Cholinesterase with A199S, F227A, S287G, Y328W, Y332M
modifications: Butyrylcholinesterase variant
B14: A328W/Y332P (protein)
chain: B1 Cholinesterase with Y328W, Y332P
modifications: Butyrylcholinesterase variant
B15: A328W/V331L (protein)
chain: B1 Cholinesterase with Y328W, V331L
modifications: Butyrylcholinesterase variant

What was measured:
[1] = Km for cocaine hydrolysis by horse butyrylcholinesterase, isotope tracer assay, Lineweaver-Burk plot; assay type: biochemical; settings: 2 hour incubation at 37° C.; x intercept = -1/Km
Description: (§1) At the conclusion of the isotope tracer assay, an aliquot of the reaction mix is acidified in order to take advantage of the solubility difference between the product and the substrate at pH 3.0. […] Prospect, Ill.) while [3H]-cocaine is not.

[2] = read-out: Km for cocaine hydrolysis, previously published, cited from earlier work
Sprague Dawley rats = experiment: pilot studies, lethal dose of infused cocaine; settings: rat, i.v. infusion
Protocol: (§2) Briefly, unilateral/bilateral jugular cannulations were performed under isoflurane anesthesia (max. 20 min) on 350 g male :Sprague Dawley®SD® rats (Harlan Sprague Dawley, Inc.) The animals were allowed to recover for 24 hours before studies commenced. […] One minute later, the cannula was connected to an infusion pump (Harvard Apparatus) and cocaine (HCI salt) was infused at 6 mls/hr (2 mg/kg/min) for 15 minutes corresponding to a total dose equal to 30 mg/kg. The time-to-onset for slight convulsions, strong convulsions and death were recorded. […] In a second series of studies, 0.5 mg/kg of the A328W/Y332M/S287G/F227A variant was administered at various time points after initiation of the 30mglkg cocaine infusion and gross observations recorded.

cocaine toxicity = settings: rat, infusion of cocaine at 1 mg/kg/min, catecholamine levels standardized; cited from earlier work
[3] = cited from earlier work
[4] = microtiter isotope tracer [3H]-cocaine hydrolysis assay of immobilized butyrylcholinesterase variants; assay type: biochemical; settings: for Relative Activity of butyrylcholinesterase variants (WT = 1) with enhanced cocaine hydrolase activity: relative to wild-type = 1, catalytic efficiency (Vmax/Km), [3H]-cocaine microtiter assay; for cocaine hydrolysis activity compared to butyrylcholinesterase (in words): compared to human butyrylcholinesterase; for increase in cocaine hydrolysis activity relative to butyrylcholinesterase: compared to human butyrylcholinesterase SEQ ID NO: 44, approximate values
Description: as §1
The supernatants isolated from each of the butyrylcholinesterase variant library clones contains variable butyrylcholinesterase enzyme concentrations.
At least three approaches are used to either increase the assay sensitivity or the assay signal.
Km values for (−)-cocaine are determined at 37° C. Vmax and Km values are calculated using Sigma Plot (Jandel Scientific, San Rafael, Calif.). The number of active sites of butyrylcholinesterase is determined by the method of residual activity using echothiopate iodide or diisopropyl fluorophosphates as titrants, as described previously by Masson et al., Biochemistry 36: 2266-2277 (1997). […] Purified human butyrylcholinesterase is used as the standard for the ELISA quantitation assay. The catalytic rate constant, kcat, is calculated by dividing Vmax by the concentration of active sites.

cocaine-induced toxicity = experiment: in vivo cocaine toxicity, cocaine infusion 30 mg/kg in cannulated rats; settings: rat; for effect of therapeutic treatment on cocaine-induced toxicity: FIG. 9; for effect of pre-treatment on cocaine-induced toxicity: i.v. 0.1-0.5 mg/kg, 1 minute before cocaine 2 mg/kg/min for 15 minutes, Chi-squared test p<0.001, FIG. 8
Protocol: as §2
The variant was administered at the indicated doses, 1 minute prior to infusion of 30 mg/kg cocaine (2 mg/kg/min for 15 minutes).

Row | Molecule | Relative Activity of butyrylcholinesterase variants (WT = 1) with enhanced cocaine hydrolase activity [4] | cocaine hydrolysis activity compared to butyrylcholinesterase (in words) [4] | increase in cocaine hydrolysis activity relative to butyrylcholinesterase [4] | also measured
1 | horse butyrylcholinesterase |  |  |  | Km [1]: ~37.6 µM; Km ([2]; Gatley 1991): 38 µM; Km ([2]; Xie et al. 1999): 45 ± 5 µM
2 | COC(=O)[C@H]1[C@@H](OC(=O)c2ccccc2)C[C@@H]2CC[C@H]1N2C [cocaine] |  |  |  | lethal dose of cocaine (Sprague Dawley rats): approximately 25 mg/kg; LD50 (cocaine toxicity): 10 mg/kg; LD90 (cocaine toxicity): 16 mg/kg
3 | B1 |  |  |  | increase in cocaine hydrolysis activity compared to human butyrylcholinesterase ([3]; Xie et al. 1999): four; cocaine hydrolysis activity (in words) ([3]; recombinantly prepared mutations tested previously): increased cocaine hydrolysis activity
4 | B2 | 1.9 |  |  | 
5 | B3 | 100 | enhanced cocaine hydrolase activity | one-hundred | 
6 | B4 |  |  | one-hundred | effect of therapeutic treatment on cocaine-induced toxicity (cocaine-induced toxicity; 0.5 mg/kg administered at 8 minutes into the 30 mg/kg cocaine infusion (after first slight convulsions)): full protection; effect of therapeutic treatment on cocaine-induced toxicity (cocaine-induced toxicity; 0.5 mg/kg administered at later time points than 8 minutes, 0.5 mg/kg): decreased in ability to protect; effect of therapeutic treatment on cocaine-induced toxicity (cocaine-induced toxicity; 0.5 mg/kg administered at later time points than 8 minutes, listed as AME-359, 0.5 mg/kg): decreased in ability to protect; effect of pre-treatment on cocaine-induced toxicity (cocaine-induced toxicity): decreasing cocaine-toxicity; also recorded: statistically significant protection against cocaine; effect of pre-treatment on cocaine-induced toxicity (cocaine-induced toxicity; listed as AME-359): statistically significant protection against cocaine; time-of-onset of symptoms associated with cocaine-induced toxicity (cocaine-induced toxicity; pre-treatment 1 minute before 30 mg/kg cocaine infusion, FIG. 12): delaying the time-of-onset of symptoms
7 | B5 | 8 | enhanced cocaine hydrolase activity | seven | increase in cocaine hydrolysis activity relative to butyrylcholinesterase ([4]; listed as SEQ ID NO: 8): eight
8 | B6 | 4.1 |  |  | 
9 | B7 | 7 |  |  | 
10 | B8 | 2.4 |  |  | 
11 | B9 | 68 | enhanced cocaine hydrolase activity | sixty-eight | 
12 | B10 | 91 | enhanced cocaine hydrolase activity | ninety-one | 
13 | B11 | 2.5 | enhanced cocaine hydrolase activity | two-and-a-half | 
14 | B12 | 97 | enhanced cocaine hydrolase activity | ninety-seven | 
15 | B13 | 100 | enhanced cocaine hydrolase activity | one-hundred | 
16 | B14 | 10 | enhanced cocaine hydrolase activity | ten | 
17 | B15 | 16 | enhanced cocaine hydrolase activity | sixteen | 
